Consider 20 sequences from the DeepSol protein solubility set.

This data set can be described thus: soluble on expression in E. coli; label from the status in PepcDB or PDB records.
“MGNMFGSSLASLFFLWATIQQIFPNHLKIAIKEFFLSTIQQISFAKRFSDKFINFFSPYVQINFSEYEDYRVNHAFDPIETYLGAKATDKAKHLRASQVRESKGLVLKRDETKVRDEYEGIRVWWEMETDSAGYKTLKLTFHRRSRDIVTNSYIKYVVEEGKSIDAKNKKMKLFTNNPSSHWGSSKTSFWRYIDFEHPATFETLAMDPKKKEQILNDLAAFNNGKDYYKKIGKAWKRGYLLYGPPGTGKSTMIAAMANLLNYSIYDLELTAIQNNSELRKILTATSNKSIIVIEDIDCSLDLTGKRKKKESNLMIWRKDGDQDNEENKSFVTLSGLLNFIDGIWSACGQERIIVFTTNHLAKLDPALIRRGRMDMHIELSYCTFEAFKTLAKNYLDLDSHPLFSKIESLMKETNIAPADVAENLMKKNRETDADGSLNDLIESLERKKKVQIAQVDEHKEYSNKIVEAFRKLF”: the “soluble on expression in E. coli” value was “soluble”.

For the sequence “MGNNQSGGPDARYGGPNDKAGLRRHRMMSETAKIAGQVLPNPDGGPPMIFDDGNEDKSGECPVVFRWSFTQNAQPRVVHIVGSWDNWQTRIPMVKSTNDFSTIIDLQPGQYEYKFQVDGSWVVDDNQGKAQDVHGNENNMINIQDSDFAVFEALDEDFQSSTAGEVLRGESESTKNHDTPNDRELEKLRSFTQEIPSMDMLRKAAGPPVIPPQLMQVLLNKETPESCDPNVLPEPNHVMLNHMYALSIKDSVMVLSSTQRYRKKFVTTLLYKPV”, the “soluble on expression in E. coli” value is on record as “not soluble”.

On to “MGNQLDRITHLNYSELPTGDPSGIEKDELRVGVAYFFSDEEEELDDRSQSDSFKDNNSPSKDGPVARNEIEYTAFCCQECIYSKLRENEDLNVYSVKTLLTMCKPGDLLELVANAQPPHWAIFEGEDQVIHLYKGEIRKDSLFEISCGRQARIVNNRYRYRPLPADLVMQNASGHVGLSSGEICWTNSESFAAWCRFGKREFKAGGEVHSVEQRYFLKVHLSESTAHTLMFRSLEEMIRERRRVDASGILKELSLVTGKE”, for which the “soluble on expression in E. coli” value is “not soluble”.

As for “MGNTATEFDGPYVITPISGQSTAYWICDNRLKTTSIEKLQVNRPEHCGDLPETKLSSEIKQIMPDTYLGIKKVVALSDVHGQYDVLLTLLKKQKIIDSDGNWAFGEGHMVMTGDIFDRGHQVNEVLWFMYQLDQQARDAGGMVHLLMGNHEQMVLGGDLRYVHQRYDIATTLINRPYNKLYSADTEIGQWLRSKNTIIKINDVLYMHGGISSEWISRELTLDKANALYRANVDASKKSLKADDLLNFLFFGNGPTWYRGYFSETFTEAELDTILQHFNVNHIVVGHTSQERVLGLFHNKVIAVDSSIKVGKSGELLLLENNRLIRGLYDGTRETLQENSLNQ”, the “soluble on expression in E. coli” value is recorded as “soluble”.

As for “MGPLCAVCESPTAFTLHFGGRCCKACAAFFRRTIALDLKYECAADDPCEIHFKFPGMRLVCRECRLRKCYSAGMRSELVRSKRENFACTRRKDSRNNSDAAPNSNSPSTRQSSSPEEMDDWSFQMFEEKPKIEDLPLTPSISHPPLPTQLMPEESSRTSSFDGGYCSSYPSSSAATHPSPPGMLYSIENNSILQYYHSMETGLCSKRRIMYTNTGMDFILDTHANLQCPFTVNDLRPHDYRNFRGMLRHDFVMLFDYATRFPEFNSFTSHEKNMFYRQIVAVDFILSSAYYTAKLGQAHRQMVLTNGEYLNMDPLPMSGNEIDARRYFDCDEDFSKYRALMPMHIAIWEESIVPFSKLNVTFEEFCLLKALTVWQATYFKLTENGREKCRRQRNIIIGFLSKMCHSPGGGGEHRVGELLMSMNYLRESAQKLTTSYVMLTVFNVLNCDSMLHEMLNFQY”, the “soluble on expression in E. coli” value is “not soluble”.

“MGPMPKLADRKLCADQECSHPISMAVALQDYMAPDCRFLTIHRGQVVYVFSKLKGRGRLFWGGSVQGDYYGDLAARLGYFPSSIVREDQTLKPGKVDVKTDKWDFYCQ”: the “soluble on expression in E. coli” value is “soluble”.

For the sequence “MGQAPDRPHLETFLARLRAGAKILELGCGGGQDSEYMLSAGFDVHPTDGTPDIAKAAQARLGIPVRTLLFENIEDAALYDAVWANACLLHVPRLALPGIIGRIHTALKPGGVFYASFKAGEVEGRDTFGRYYNYPSKAWLEETYGQFAWTEVEIEARQGSGYDKLPTDWLHVTATKALEHHHHHH”, the “soluble on expression in E. coli” value is on record as “not soluble”.

“MGQLPPRARAFFAAQRPLRVLMPGCGSAADLPPLLAMGHDVLAVDFSEAAIELAARQWPEAAGRLLLADFFQLQMPAFDCLFERAFLCALPVGMRSQYAERVAALIAPGGALAGVFFVADTERGPPFGMQAEALRELLSPWFELEEDLALDESVAVFRNRERWMVWRRRGLEHHHHHH”: the “soluble on expression in E. coli” value is “not soluble”.

Turning to “MGQMFNPPHPGETLREDVLPAFNLTVTEAANQLGVSRVTLSRVLNGTSAISPEMALRIEEWLGVENGGRADLWLGMQTSYDLWKARERVHQQPLSVRSVKHKSTEMALR”, the “soluble on expression in E. coli” value was “not soluble”.

For “MGQRSTPQQIPVVVLAGFLGSGKTTLLNHLLHRSGGSRIGAVVNDFGSIEIDAMAVAGALGDSTVSLGNGCLCCAVDASELDGYLARLARPEAGIDVIVIEASGLAEPQELVRMLLASEQPGIVYGGLVEVVDAAEFDDTRARHPEIDRHLALADLVVVNKTDRATDAERVLGLVHSLVGGAAVVPATYGRIDPEFLYDCRPGEERVGQLSFDDLHDHSEGGAHADHLHAAYDTLSFVSGLPLDPRRLMRFLDSRPKGLYRIKGYVDFGPYDTRNRYAVHAVGRFLRFYPEPWTPAGAAGGSGAPETGRTQLVLIGSGIDAAALGEELDACRRDADAPPADEHGMWGVLRYVADGEEPPDSPLEHHHHHH”, the “soluble on expression in E. coli” value was “not soluble”.

As to “MGRNDSEFPSDEELKKLAGKIKGAAIRANTKILKSYDPDTYGNYLDQLDGIRSQAEWLGTAFDDFLKPSPWDFDDMLKALDEIASDLGQAVGETEIKNGIVQGRIDTTKQFLGEGGWKGALADSFKMDYLEPIGSHIAANQGAVTLVTHDGLQAMRDIYGKARENLKDLGEKAVTAFEQADGISASDLKTLLTVLSAAFGLGTAVLSAFAPAAAAGAGIASALVSGGIAVGSDKVGEDEESELAADYPDKVEENFKNALEKLKEQITTMEDELIKVLQKGTSDIASIVWGEKLDRLNGFSALFGMGNQSLLAPKVPDLSMVAFGDDPGKLKDGLVQVSG”, the “soluble on expression in E. coli” value was “not soluble”.

“MGRRRGFLTMRIPRIYHPEPLTSHSHIALCEDAANHIGRVLRMGPGQALQLFDGSNQVFDAEITSASKKSVEVKVLEGQIDDRESPLHIHLGQVMSRGEKMEFTIQKSIELGVSLITPLFSERCGVKLDSERLNKKLQQWQKIAIAACEQCGRNRVPEIRPAMDLEAWCAEQDEGLKLNLHPRASNSINTLPLPVERVRLLIGPEGGLSADEIAMTARYQFTDILLGPRVLRTETTALTAITALQVRFGDLGLEHHHHHH”: the “soluble on expression in E. coli” value is given as “not soluble”.

On to “MGRSATPEGDPARTMELLWGGGSTPISRPRNGKPGLTLDRIVETAVSVADAEGLDAVSMRRLASELGAGAMSLYTHVPGKTELVEVMLDRALSTLEPADDADEGWRERLAAAAHDYFHLLCAHPWMLGVVALSRPVLGPGGMAKYERELRAVEGLGLSDLDMDSVVTLLDSFVAGAARAAVDAAALAAQGEADSEWWQRVAPHFEKVFDPDRFPLAARVGASAGEHHDAAYVPAHAFEFGLTRLLDGVGALIVDGGTGGE”, for which the “soluble on expression in E. coli” value was “not soluble”.

Turning to “MGRVLDRIEVVAEEIRGQAVQSEADCRLTDAAAGLLRDSGAIRLLQPRLYGGYEVHPREFAETVMGVAALDGASGWVTGIVGVHPWELAFADPQVQEEIWGEDNDTWMASPYAPMGVATPVDGGYVLKGRWSFSSGTDHCQWAFLGAMVGDGEGGIATPSSLHVILPRTDYQIVEDTWDVIGLRGTGSKDLIVDGAFVPGYRTLNAAKVMDGRAQKEAGRPEPLFNMPYSCMFPLGITAAVIGITEGALACHIAVQKDRVAITGQKIKEDPYVLSAIGESAAEINASRVSLIETADRFYDKVDAGKEITFEERAIGRRTQIAAAWRAVRAADEIFARAGGGALHYKTPMQRFWRDAHAGLAHAVHVPGPTNHASALTQLGGEPQGMMRAMI”, the “soluble on expression in E. coli” value was “soluble”.

Consider “MGRVYYGGVERTYLYRGRILNLALEGRYEIVEHKPAVAVIALREGRMLFVRQMRPAVGLAPLEIPAGLIEPGEDPLEAARRQLAEETGLSGDLTYLFSYFVSPGFTDEKTHVFLAENLKEVEAHPDEDEAIEVVWMRPEEALERHQRGEVEFSATGLVGVLYYHAFLRGR”, for which the “soluble on expression in E. coli” value is recorded as “soluble”.

Regarding “MGSDKIHHHHHHAAGLVVNDNDLRNDLAWLSDRGVIHLSLSTWPLSQEEIARALKKAKPSYSSEQVVLARINQRLSALKADFRVTGYTSTDQPGTPQGFGQTQPADSSLGLAFNNSGEWWDVHLQGNVEGGERISNGSRFNANGAYGAVKFWNQWLSFGQIPQWWGPGYEGSLIRGDAMRPMTGFLMQRAEQAAPETWWLRWVGPWQYQISASQMNQYTAVPHAKIIGGRFTFSPFQSLELGASRIMQWGGEGRPESFSSFWDGFTGHDNTGTDNEPGNQLAGFDFKFKLEPTLGWPVSFYGQMVGEDESGYLPSANMFLGGVEGHHGWGKDAVNWYVEAHDTRTNMSRTNYSYTHHIYKDGYYQQGYPLGDAMGGDGQLIAGKVELITEDNQRWSTRLVYAKVNPENQSINKAFPHADTLKGVQLGWSGDVYQSVRLNTSLWYTNANNSDSDDVGASAGIEIPFSL”, the “soluble on expression in E. coli” value is “not soluble”.

Regarding “MGSDKIHHHHHHAAGSSSSSGSSSPSATLTPKDSQATTVFTTTNPSLTLSKVPNIDFGSNATPNGSTDLSVQAAKVDSDLEVANDGIASGWNVQVMNSAFTDSATNNSLYGAKLSFAAAGVAPANADNASPKPAMSAVSLSGDGQNQLVLSAPVKGGLGIWDTEYALSDFKLSVPAGQLPGSYVSNLTWQLSNAPQ”, the “soluble on expression in E. coli” value is “not soluble”.

With “MGSDKIHHHHHHAASITLPSGYTKNAVIKWNQTGKASKALINASKKGMMENTNSDAGSDNTLVNVTKLTNSQKVELSKYTLSLINSARSQLGKKPWTYRSGALRFADRVANQYYTHNKSCWDPDHYVAGILRAAKASGLNSNAGQVYEDEAGLPISSQYGSNLRTMSVLKNQIYFNVKQMLFGGFAGSDSQMNDSSRYTEWEHAGDLLGCRTKNYDAKTKYFGVSFSGLKDDQSKISVHMIGVAKRYIQNYKKFNH”, the “soluble on expression in E. coli” value is reported as “not soluble”.

Take “MGSDKIHHHHHHACSLQQYQTKIVANNNYGIYQSLTRKGPVRQMGVTGTFKYSHFQASSVKKIKHNTYWYVLINGHKAGWVNQSAFARNKISVAKRVSLVKNPYYDFNVKDAINYVTDSSGSVVDLDKVHVSQNTVSSAKAGIHNITYTYGKGKAHSLIRVRNDQYEGIVNANKKPQMGKSGVTWFKHFKTSGNWGKGSSYAPETKPHVLKNGNFKLKTVFYQPATLSQGDSKLGVVGPLPEGLAVSDGRMYATMYDRPTRTHAHIVSYQLNQIPNRYVMQKLPWLPWPEFARLSATIKVSPLIKLGHGQAISTSKKYIYVIANNHLLRNNPESEEIMQISKNDLQIKKIWTFKIWDQKSEYGRYVHNAVFLNDHKFIAVYHSSTMNRFEYWEVTRHGNSWYPKEIGATKGEFMRNNSPVQGIAYDKHKKQIYLAFNDYLFKLNRKGRVIENGHFNTGREFEGICVDNKTFYAELAQRPELLKQKLK”: the “soluble on expression in E. coli” value is reported as “not soluble”.

Regarding “MGSDKIHHHHHHACTDGINETVISAYQLPVLPEPSYKFSRNGESSVNVLECGFLKSPIDRIFSEYMNEARMSTKRDYDEALRIYHEGNFGLKPQKEVSASSKHLKDRDKILKDIDAWFETSARIAGLGANIPSYEHRNREAVKGLTGYVGNGIGDKDICYVDERGIAVAEVYKYAIMGAIYLDKILNIHLSEQILENNEVLVRNDLTQLLPGHNYTELEHHWDLAYGYYDFWKTLAQSDGLPALKDCHLRISRSFVKGRALMTTSQYDEMRLQADTIRQELSRVVAVRAMHLLVGPNTLANLKENPRRAFRLLSQAYGLIYAAQFARNMEGKSFLTNEETGILLHELEKGDGLWDKERLLGREQTEGALYNLAVRIGEKFDVSPEDIKK”, the “soluble on expression in E. coli” value was “not soluble”.
